These results are taken from publication PMC12185008, “The PavMYB.C2-UFGT module contributes to fruit coloration via modulating anthocyanin biosynthesis in sweet cherry”.

To fix the notation:
T1: PavMYB.C2 (Prunus avium (sweet cherry), UniProt A0A6P5T6R9 1-74)
T1 sequence: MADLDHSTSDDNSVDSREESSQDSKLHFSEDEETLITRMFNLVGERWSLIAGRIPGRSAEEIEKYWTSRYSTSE

B1: UFGT promoter MBS2 probe (dsDNA)
DNA 1: TGAGAGAAAGAAATAAAAATCAGAAACAAAGGTAGCGTTTTTCTTTCTTT
DNA 2: AAAGAAAGAAAAACGCTACCTTTGTTTCTGATTTTTATTTCTTTCTCTCA
B2: UFGT promoter MBS3 probe (dsDNA)
DNA 1: TTCACTCCTCGACTCAGCAAGTGGTTATTTAGTGGTAGAGTTTGTTTTGA
DNA 2: TCAAAACAAACTCTACCACTAAATAACCACTTGCTGAGTCGAGGAGTGAA
B3: UFGT promoter MBS1 probe (dsDNA)
DNA 1: GATCGATATTTAGAGAGAGAAACAACCACCCGCGTGATGTGTGAGAGAAA
DNA 2: TTTCTCTCACACATCACGCGGGTGGTTGTTTCTCTCTCTAAATATCGATC

In this data set the target is T1, PavMYB.C2. The experiment in a line: EMSA; EMSA/Gel-Shift Kit (Beyotime) with LightShift chemiluminescent EMSA kit (Thermo Fisher), standard protocol; buffer, salt, pH and temperature not stated. The settings on record: protein: recombinant; tags: GST (pGEX-4T-1); label: 3' biotin (Methods); blunt. In general terms: A gel shift assay detects complexes by their altered migration in electrophoresis.
Regarding B1, the binding result was “no binding”.
B2: the binding result is reported as “binds”.
The result for B3 reads “no binding”.
